Measurements published in publication PMC11145185, “Inhibition of mRNA nuclear export promotes SARS-CoV-2 pathogenesis” (Proceedings of the National Academy of Sciences of the …, 2024).

B1: GST-tagged SARS-CoV-2 Nsp1 E55A/E57A/K58E (natural protein)
chain: MESLVPGFNEKTHVQLSLPVLQVRDVLVRGFGDSVEEVLSEARQHLKDGTCGLVAVAEGVLPQLEQPYVFIKRSDARTAPHGHVMVELVAELEGIQYGRSGETLGVLVPHVGEIPVAYRKVLLRKNGNKGAGGHSYGADLKSFDLGDELGTDPYEDFQENWNTKHSSGVTRELMRELNGG
B2: GST-tagged SARS-CoV-2 Nsp1 L27D/V28D (natural protein)
chain: MESLVPGFNEKTHVQLSLPVLQVRDVDDRGFGDSVEEVLSEARQHLKDGTCGLVEVEKGVLPQLEQPYVFIKRSDARTAPHGHVMVELVAELEGIQYGRSGETLGVLVPHVGEIPVAYRKVLLRKNGNKGAGGHSYGADLKSFDLGDELGTDPYEDFQENWNTKHSSGVTRELMRELNGG
notes: also called hydrophobic patch mutant
B3: GST-tagged SARS-CoV-2 Nsp1 E91K/L92A/E93K/I95A (natural protein)
chain: MESLVPGFNEKTHVQLSLPVLQVRDVLVRGFGDSVEEVLSEARQHLKDGTCGLVEVEKGVLPQLEQPYVFIKRSDARTAPHGHVMVELVAKAKGAQYGRSGETLGVLVPHVGEIPVAYRKVLLRKNGNKGAGGHSYGADLKSFDLGDELGTDPYEDFQENWNTKHSSGVTRELMRELNGG
B4: GST-tagged SARS-CoV-2 Nsp1 N-terminal domain (residues 1 to 129) (domain or fragment)
chain: MESLVPGFNEKTHVQLSLPVLQVRDVLVRGFGDSVEEVLSEARQHLKDGTCGLVEVEKGVLPQLEQPYVFIKRSDARTAPHGHVMVELVAELEGIQYGRSGETLGVLVPHVGEIPVAYRKVLLRKNGNK

Biological target: T1, human NXF1(117-619)-NXT1 heterodimer, wild type (human, UniProt Q9UBU9 117-619; Q9UKK6 1-140)
T1 construct: human NXF1 (mRNA export receptor), residues 117-619; human NXT1, coexpressed with NXF1; also called NXF1-NXT1; mRNA export receptor; source: E. coli Rosetta, coexpressed, purified (details in SI Appendix)
T1 sequence (looked up) 1: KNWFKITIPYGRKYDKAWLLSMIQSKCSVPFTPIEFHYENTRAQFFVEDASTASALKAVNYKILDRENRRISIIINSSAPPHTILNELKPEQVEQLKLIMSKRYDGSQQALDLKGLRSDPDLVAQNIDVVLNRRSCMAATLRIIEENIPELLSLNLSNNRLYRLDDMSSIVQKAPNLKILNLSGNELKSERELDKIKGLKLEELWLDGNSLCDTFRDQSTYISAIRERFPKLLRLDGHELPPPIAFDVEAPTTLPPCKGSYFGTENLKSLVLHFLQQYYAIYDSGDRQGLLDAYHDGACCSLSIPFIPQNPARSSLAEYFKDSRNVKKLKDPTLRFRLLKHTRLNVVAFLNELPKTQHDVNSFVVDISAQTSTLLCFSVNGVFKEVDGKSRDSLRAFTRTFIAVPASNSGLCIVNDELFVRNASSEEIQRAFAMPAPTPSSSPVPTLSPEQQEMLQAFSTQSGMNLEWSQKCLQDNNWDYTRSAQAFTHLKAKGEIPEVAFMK
T1 sequence (looked up) 2: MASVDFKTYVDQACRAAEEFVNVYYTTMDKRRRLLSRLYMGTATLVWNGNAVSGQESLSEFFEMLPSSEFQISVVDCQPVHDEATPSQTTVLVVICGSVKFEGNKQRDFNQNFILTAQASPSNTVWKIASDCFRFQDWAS
Conditions: both partners purified

**Q.** Does B1 bind?
**A.** binds

**Q.** Does B2 bind?
**A.** binds

**Q.** Does B3 bind?
**A.** binds

**Q.** Does B4 bind?
**A.** binds
